Test results from IntAct's records for PubMed 16469698.

Target: mfd_ecoli mfd (UniProt P30958)

## DNA-directed RNA polymerase subunit beta (Escherichia coli (strain K12)) (from UniProt P0A8V2) E119A
  effect of a mutation on the interaction: decreasing interaction
